The text below walks through data of patent US20110251106A1 (NEXTERA, published 2011).

The experiment concerns the target T1, Streptavidin on Dynabeads MyOne-Streptavidin magnetic beads (UniProt P22629 37-163, limits assumed).
T1 construct: also called SA; SA beads
As to the kind of experiment: streptavidin bead capture of virions, anti-M13 MAb-HRP detection.

T1 sequence (P22629 37-163 limits assumed): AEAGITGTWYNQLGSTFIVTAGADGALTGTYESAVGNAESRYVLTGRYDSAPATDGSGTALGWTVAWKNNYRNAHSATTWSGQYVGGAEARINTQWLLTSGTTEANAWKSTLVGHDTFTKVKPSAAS

B1: wild type pVII on M13K07 wt helper phage virions (other)
chain: MEQVADFDTIYQAMIQISVVLCFALGIIAGGQR
notes: Control virion with no tag on pVII; Also used here for phagemid virions packaged with wt M13K07; also called wildtype M13K07; wt pVII
For B1, the binding result is given as “no binding”.
